B1: recombinant N-term portion of OPN (aa 17-167) (domain or fragment)
chain: not shown
notes: Osteopontin, N-terminal thrombin-generated fragment, aa 17-167; also called OPN-N; OPN-N terminal; source: recombinant
B2: recombinant C-term portion of OPN (aa 168-314) (domain or fragment)
chain: not shown
notes: Osteopontin, C-terminal thrombin-generated fragment, aa 168-314; also called OPN-C; OPN-C terminal; source: recombinant
B3: soluble recombinant ICOSL-Fc (Fc fusion, UniProt O75144 19-256, looked up)
chain: DTQEKEVRAMVGSDVELSCACPEGSRFDLNDVYVYWQTSESKTVVTYHIPQNSSLENVDSRYRNRALMSPAGMLRGDFSLRLFNVTPQDEQKFHCLVLSQSLGFQEVLSVEVTLHVAANFSVPVVSAPHSPSQDELTFTCTSINGYPRPNVYWINKTDNSLLDQALQNDTVFLNMRGLYDVVSVLRIARTPSVNIGCCIENVLLQQNLTVGSQTGNDIGERDKITENPVSTGEKNAAT
notes: also called B7-H2; CD275; source: bought: Bio-Techne / R&D

What all share (assay): ELISA; OPN preparation (60 nM in PBS) coated on MaxiSorp plates; ICOSL-Fc titrated from 60 nM to 1.8 nM in PBS + 0.05% Tween-20, 1 h at 25 C, with or without 60 nM ICOS-Fc, or ICOS-Fc alone; detected with HRP anti-human-IgG1
Common to all, as to conditions: both partners purified
A general note: ELISA stands for enzyme-linked immunosorbent assay.

Test [1] has as its target B3.
In test [2] the target is T1, GST-OPN fusion protein (human OPNa) produced in E. coli (human, UniProt P10451-1 17-314).
T1 construct: human Osteopontin OPNa; also called OPN-GST; huGST-OPN; source: E. coli BL21 (DE3), purified (Glutathione Sepharose)

Test [3] has as its target T2, full-length OPN (OPN-a) produced in an eukaryotic system ( (human or mouse cDNA cloned), UniProt P10451-1 17-314).
T2 construct: Osteopontin, full-length form OPN-a; Secreted into the supernatant, so the signal peptide is probably absent (surmise); also called OPN-FL; home-made OPN-FL; source: CHO cells, stably transfected (pUCOE vector), purified from supernatant on nickel-nitrilotriacetic agarose

T2 sequence (P10451 17-314): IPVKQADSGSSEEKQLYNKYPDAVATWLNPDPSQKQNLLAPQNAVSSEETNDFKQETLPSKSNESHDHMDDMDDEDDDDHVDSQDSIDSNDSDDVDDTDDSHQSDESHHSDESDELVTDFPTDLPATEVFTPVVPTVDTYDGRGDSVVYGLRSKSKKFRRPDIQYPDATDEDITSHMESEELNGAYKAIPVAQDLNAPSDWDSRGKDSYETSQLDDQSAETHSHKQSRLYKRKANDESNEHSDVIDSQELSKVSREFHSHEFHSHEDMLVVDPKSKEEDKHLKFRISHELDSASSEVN
T1 sequence (P10451 17-314): as above

In the case of B1, the binding result in test [1] is “binds”.

For B2, the binding result in test [1] is on record as “binds”.

In the case of B3, the binding result in test [2] and in test [3] was “binds” in each case.
